Assay [1] has as its target reagent Mα2-3/peroxidase, obtained by classical chemical coupling.
The target of assay [2] is hybrid F(ab)₂-PhoA (complex hybrid protein alkaline phosphatase/F(ab)₂ of antibody Mα2-3) (E. coli) [phosphatase: P00634].

A word on the IC50: it is the concentration needed to halve the response being measured. On to toxin alpha (from UniProt P01426), for which the figures for the IC50 in assay [1] and in assay [2] were 9 nM and 20 nM, respectively.

Source of the values: patent publication EP0556111A1.
